Measurements as given in paper PMC3665706 (Immunity, 2013).

Biological target: the molecule itself
Assay: SEC-MALS

B1: N-terminal A20 protein bearing the OTU domain (residues 1-370), wild type (domain or fragment, UniProt P21580 1-370, looked up)
chain: MAEQVLPQALYLSNMRKAVKIRERTPEDIFKPTNGIIHHFKTMHRYTLEMFRTCQFCPQFREIIHKALIDRNIQATLESQKKLNWCREVRKLVALKTNGDGNCLMHATSQYMWGVQDTDLVLRKALFSTLKETDTRNFKFRWQLESLKSQEFVETGLCYDTRNWNDEWDNLIKMASTDTPMARSGLQYNSLEEIHIFVLCNILRRPIIVISDKMLRSLESGSNFAPLKVGGIYLPLHWPAQECYRYPIVLGYDSHHFVPLVTLKDSGPEIRAVPLVNRDRGRFEDLKVHFLTDPENEMKEKLLKEYLMVIEIPVQGWDHGTTHLINAAKLDEANLPKEINLVDDYFELVQHEYKKWQENSEQGRREGHAQ
  stoichiometry N: 2
